Experimental data as given in patent US20210340530A1 (INTELLIA THERAPEUTICS, published 2021).

Key:
[1] = target: T1, … (VLD) WT1 peptide pulsed on target cells (HLA-02.01 positive T2 cell line; OCI-AML3); experiment: cell-based or functional assay
[2] = target: T2, … (RMF) WT1 peptide pulsed on target cells (HLA-02.01 positive T2 cell line; OCI-AML3); experiment: cell-based or functional assay
[3] = target: T1, … (VLD) WT1 peptide pulsed on target …; experiment: cell-based or functional assay; remark: listed apart in the source
[4] = target: T2, … (RMF) WT1 peptide pulsed on target …; experiment: cell-based or functional assay; remark: listed apart in the source
[5] = target: T3, VLD-Tetramer (pMHC tetramer with WT1 peptide …); experiment: flow cytometry, VLD-Tetramer staining of engineered T cells; TRAC + TRBC RNP
T3 construct: Staining reagent; also called VLD (Wilms' tumor antigen) tetramer; TCR specific pMHC tetramer
Procedure: (§1) Four to 12 days after RNP nucleofection, edited T cells (200 ul/200,000 cells) were collected in a 96 well round bottom plate and spun down at 500 g for 5 minutes. Cells were then resuspended in an antibody mixture containing a combination of antibodies targeting CD3, CD4, CD8, CD45RO, CD45RA, CD27, CCR7, CD62L, and/or the TCR specific pMHC tetramer or TCR specific Vbeta chain antibody. The mixture was incubated for 45 minutes at room temperature in the dark. Samples were spun down at 500 g for 5 minutes, cell pellets collected, and resuspended in 1:10,000 DAPI (Biolegend—#422801) in FACS buffer. Flow cytometry was then performed using the cytoflex according to the manufacturer's instructions.
(§2) T cells were evaluated with additional engineered TCRs for the impact of endogenous beta chains on pairing of both the inserted alpha chain and inserted beta chain. The experiment was performed as described herein except tetramer staining was used to measure MFI and the AAV inserts in Table 31 were used for transduction.

[6] = target: T3, VLD-Tetramer (pMHC tetramer with WT1 …); experiment: flow cytometry, VLD-Tetramer staining of engineered T cells; TRAC RNP only
Procedure: as §1, §2

[7] = target: T1, … (VLD) WT1 peptide pulsed on target …; experiment: cell-based or functional assay; remark: listed apart in the source
[8] = target: T2, … (RMF) WT1 peptide pulsed on target …; experiment: cell-based or functional assay; remark: listed apart in the source
[9] = target: T1, … (VLD) WT1 peptide pulsed on target …; experiment: cell-based or functional assay; remark: listed apart in the source
[10] = target: T1, … (VLD) WT1 peptide pulsed on target …; experiment: cell-based or functional assay; remark: listed apart in the source

% CD4+ TNFa+ IFNg+; TRAC/TRBC; 0 nM VLD; T2 [1]: 1.1% | % CD4+ TNFa+ IFNg+; TRAC/TRBC; 0.005 nM VLD; T2 [1]: 1.6% | % CD4+ TNFa+ IFNg+; TRAC/TRBC; 0.05 nM VLD; T2 [1]: 1.2% | % CD4+ TNFa+ IFNg+; TRAC/TRBC; 0.5 nM VLD; T2 [1]: 1.8% | % CD4+ TNFa+ IFNg+; TRAC/TRBC; 5 nM VLD; T2 [1]: 11.1% | % CD4+ TNFa+ IFNg+; TRAC/TRBC; 50 nM VLD; T2 [1]: 25.1% | % CD8+ TNFa+ IFNg+; TRAC/TRBC; 0 nM VLD; T2 [1]: 9.4% | % CD8+ TNFa+ IFNg+; TRAC/TRBC; 0.005 nM VLD; T2 [1]: 21% | % CD8+ TNFa+ IFNg+; TRAC/TRBC; 0.05 nM VLD; T2 [1]: 53% | % CD8+ TNFa+ IFNg+; TRAC/TRBC; 0.5 nM VLD; T2 [1]: 74.3% | % CD8+ TNFa+ IFNg+; TRAC/TRBC; 5 nM VLD; T2 [1]: 79.8% | % CD8+ TNFa+ IFNg+; TRAC/TRBC; 50 nM VLD; T2 [1]: 81.3% | % CD4+ TNFa+ IFNg+; TRAC/TRBC; 50 nM RMF; T2 [2]: 1.6% | % CD8+ TNFa+ IFNg+; TRAC/TRBC; 50 nM RMF; T2 [2]: 10% | % CD4+ CD107a+; TRAC/TRBC; 0 nM VLD; T2 [3]: 4.45% | % CD4+ CD107a+; TRAC/TRBC; 0.005 nM VLD; T2 [3]: 4.64% | % CD4+ CD107a+; TRAC/TRBC; 0.05 nM VLD; T2 [3]: 4.68% | % CD4+ CD107a+; TRAC/TRBC; 0.5 nM VLD; T2 [3]: 4.23% | % CD4+ CD107a+; TRAC/TRBC; 5 nM VLD; T2 [3]: 11.8% | % CD4+ CD107a+; TRAC/TRBC; 50 nM VLD; T2 [3]: 21.1% | % CD8+ CD107a+; TRAC/TRBC; 0 nM VLD; T2 [3]: 21.9% | % CD8+ CD107a+; TRAC/TRBC; 0.005 nM VLD; T2 [3]: 37.3% | % CD8+ CD107a+; TRAC/TRBC; 0.05 nM VLD; T2 [3]: 64.1% | % CD8+ CD107a+; TRAC/TRBC; 0.5 nM VLD; T2 [3]: 73% | % CD8+ CD107a+; TRAC/TRBC; 5 nM VLD; T2 [3]: 75.8% | % CD8+ CD107a+; TRAC/TRBC; 50 nM VLD; T2 [3]: 76.2% | % CD4+ CD107a+; TRAC/TRBC; 50 nM RMF; T2 [4]: 4.3% | % CD8+ CD107a+; TRAC/TRBC; 50 nM RMF; T2 [4]: 22.1% | Mean % Tetramer+ (CD4+) [5]: 48% | Mean % Tetramer+ (CD8+) [5]: 51.2% | Mean Tetramer MFI (CD4+) [5]: 11300 MFI | Mean Tetramer MFI (CD8+) [5]: 23700 MFI | Mean % Tetramer+ (CD4+) [6]: 7.6% | Mean % Tetramer+ (CD8+) [6]: 12.7% | Mean Tetramer MFI (CD4+) [6]: 10100 MFI | Mean Tetramer MFI (CD8+) [6]: 21900 MFI | Caspase 3/7 integrated intensity; TRAC only; 0 nM VLD; T2 [7]: 9040 | Caspase 3/7 integrated intensity; TRAC only; 0.005 nM VLD; T2 [7]: 9180 | Caspase 3/7 integrated intensity; TRAC only; 0.05 nM VLD; T2 [7]: 16900 | Caspase 3/7 integrated intensity; TRAC only; 0.5 nM VLD; T2 [7]: 38800 | Caspase 3/7 integrated intensity; TRAC only; 5 nM VLD; T2 [7]: 137000 | Caspase 3/7 integrated intensity; TRAC only; 50 nM VLD; T2 [7]: 207000 | Caspase 3/7 integrated intensity; TRAC only; 500 nM VLD; T2 [7]: 233000 | Caspase 3/7 integrated intensity; TRAC/TRBC; 0 nM VLD; T2 [7]: 381000 | Caspase 3/7 integrated intensity; TRAC/TRBC; 0.005 nM VLD; T2 [7]: 374000 | Caspase 3/7 integrated intensity; TRAC/TRBC; 0.05 nM VLD; T2 [7]: 1.13e+06 | Caspase 3/7 integrated intensity; TRAC/TRBC; 0.5 nM VLD; T2 [7]: 1.17e+06 | Caspase 3/7 integrated intensity; TRAC/TRBC; 5 nM VLD; T2 [7]: 1.33e+06 | Caspase 3/7 integrated intensity; TRAC/TRBC; 50 nM VLD; T2 [7]: 1.2e+06 | Caspase 3/7 integrated intensity; TRAC/TRBC; 500 nM VLD; T2 [7]: 1.57e+06 | Caspase 3/7 integrated intensity; TRAC only; 500 nM RMF; T2 [8]: 7340 | Caspase 3/7 integrated intensity; TRAC/TRBC; 500 nM RMF; T2 [8]: 280000 | IL2 release; TRAC only; 0 nM VLD; T2 [9]: 2.26 pg/mL | IL2 release; TRAC only; 0.005 nM VLD; T2 [9]: 2250 pg/mL | IL2 release; TRAC only; 0.05 nM VLD; T2 [9]: 2050 pg/mL | IL2 release; TRAC only; 0.5 nM VLD; T2 [9]: 2010 pg/mL | IL2 release; TRAC only; 5 nM VLD; T2 [9]: 4270 pg/mL | IL2 release; TRAC only; 50 nM VLD; T2 [9]: 7060 pg/mL | IL2 release; TRAC only; 500 nM VLD; T2 [9]: 8380 pg/mL | IL2 release; TRAC/TRBC; 0 nM VLD; T2 [9]: 314 pg/mL | IL2 release; TRAC/TRBC; 0.005 nM VLD; T2 [9]: 304 pg/mL | IL2 release; TRAC/TRBC; 0.05 nM VLD; T2 [9]: 227 pg/mL | IL2 release; TRAC/TRBC; 0.5 nM VLD; T2 [9]: 200 pg/mL | IL2 release; TRAC/TRBC; 5 nM VLD; T2 [9]: 494 pg/mL | IL2 release; TRAC/TRBC; 50 nM VLD; T2 [9]: 1180 pg/mL | IL2 release; TRAC/TRBC; 500 nM VLD; T2 [9]: 1510 pg/mL | IFN-gamma release; TRAC/TRBC; 50 nM VLD; T2 [10]: 40200 | IFN-gamma release; TRAC/TRBC; 500 nM VLD; T2 [10]: 47600 | IFN-gamma release; only TRAC; 50 nM VLD; T2 [10]: 28100 | IFN-gamma release; only TRAC; 500 nM VLD; T2 [10]: 31500
B1: TCR-A (WT1-specific T-cell receptor) (TCR)
TCR alpha: SQQPVQSPQAVILREGEDAVINCSSSKALYSVHWYRQKHGEAPVFLMILLKGGEQKGHEKISASFNEKKQQSSLYLTASQLSYSGTYFCGTAWINDYKLSFGAGTTVTVRANIQNPDPAVYQLRDSKSSDKSVCLFTDFDSQTNVSQSKDSDVYITDKTVLDMRSMDFKSNSAVAWSNKSDFACANAFNNSIIPEDTFFPSPESSCDVKLVEKSFETDTNLNFQNLSVIGFRILLLKVAGFNLLMTLRLWSS
TCR beta: DAGVIQSPRHEVTEMGQEVTLRCKPISGHDYLFWYRQTMMRGLELLIYFNNNVPIDDSGMPEDRFSAKMPNASFSTLKIQPSEPRDSAVYFCASRKTGGYSNQPQHFGDGTRLSILEDLKNVFPPEVAVFEPSEAEISHTQKATLVCLATGFYPDHVELSWWVNGKEVHSGVSTDPQPLKEQPALNDSRYCLSSRLRVSATFWQNPRNHFRCQVQFYGLSENDEWTQDRAKPVTQIVSAEAWGRADCGFTSESYQQGVLSATILYEILLGKATLYAVLVSALVLMAMVKRKDSRG
notes: P2A remnant on the beta chain is not described; also called AV11-TCR-A; TCR-A (no cys)
